B1: GSE56: p53 dominant negative peptide (SEQ ID No. 9), transiently overexpressed from electroporated mRNA (protein)
chain: MDGWCPGRDRRTEEENFRKKEEHCPELPPGSAKRALPTSTSSSPQQKKKPLDGEYFTLKIRGRERFEMFRELNEALELKDARAAEESGDSRAHSSYPKIVS
modifications: amino acid sequence of GSE56
B2: E4orf6/7: adenoviral protein from adenovirus serotype 5 E4 gene (SEQ ID No. 2), delivered as mRNA (protein)
chain: MTTSGVPFGMTLRPTRSRLSRRTPYSRDRLPPFETETRATILEDHPLLPECNTLTMHNAWTSPSPPVKQPQVGQQPVAQQLDSDMNLSELPGEFINITDERLARQETVWNITPKNMSVTHDMMLFKASRGERTVYSVCWEGGGRLNTRVL
modifications: delivered as mRNA; example amino acid sequence of Ad5-E4orf6/7

Columns and labels:
APOBEC3H = assay: TaqMan assay of APOBEC3H gene expression; type: cell-based, human; conditions: 24 hours post-editing; FIG. 16G
Source text: (§1) For gene expression analyses, total RNA was extracted using the RNeasy Plus Micro Kit (QIAGEN). cDNA was synthetized with SuperScript VILO IV cDNA Synthesis Kit (Invitrogen) and used for Q-PCR in a Viia7 Real-time PCR thermal cycler using TaqMan Gene Expression Assays (Applied Biosystems) mapping to CDKN1A, RPS27L, PHLDA3, APOBEC3H, and HPRT as normalizer. The relative expression of each gene was first normalized to HPRT expression and then represented as fold change relative to the mock-treated sample.

CDKN1A = assay: TaqMan assay of CDKN1A gene expression; type: cell-based, human
Source text: as §1

human CD34+ cells [1] = assay: CFU-C / colony forming cell assay of edited CD34+ cells; type: cell-based; conditions: for erythroid and myeloid clonogenic output compared to standard protocol: FIG. 14G
human CD34+ cells [2] = type: cell-based
Procedure: CD34+ cells were either freshly purified from human CB after obtaining informed consent and upon approval by the Ospedale San Raffaele Bioethical Committee, or purchased frozen from Lonza. CD34+ cells were edited according to a previously optimized protocol (Schiroli et al. 2017 supra).
Briefly, 5×10^5 CD34+ cells/ml were stimulated in serum-free StemSpan medium (StemCell Technologies) supplemented with penicillin, streptomycin, glutamine, 1 μM SR-1 (Biovision), […] (STEMCell Technologies), 10 μM PGE2 added only at the beginning of the culture (Cayman), and human early-acting cytokines (SCF 100 ng/ml, Flt3-L 100 ng/ml, TPO 20 ng/ml, and IL-6 20 ng/ml; all purchased from Peprotech). After 3 days of prestimulation, cells were washed with PBS and electroporated using P3 Primary Cell 4D-Nucleofector X Kit and program EO-100 (Lonza). Cells were electroporated with 2.5-1.25 μM of RNPs.
Transduction with AAV6 was performed at a dose of 1-2×10^4 vg/cell 15′ after electroporation. GSE56 mRNA was utilized were indicated at a dose of 150 μg/ml. Gene editing efficiency was measured from cultured cells in vitro 3 days after electroporation by flow cytometry measuring the percentage of cells expressing the GFP marker or by digital droplet PCR analysis designing primers and probe on the junction between the vector sequence and the targeted locus and on control sequences utilized as normalizer as previously described (Schiroli et al. 2017 supra).
For HDR ddPCR, primers and probes were designed on the junction between the vector sequence and the targeted locus and on control sequences used for normalization (human TTC5 genes). Thermal conditions for annealing and extension were adjusted for each specific application as follows: AAVS1/Intron 1 IL2RG HDR 3′ integration junction ddPCR: 55° C. for 30 sec, 72° C. for 2 min. Primers and probes for PCR and ddPCR amplifications are shown below.
CD34^+ cells were purchased frozen from Lonza. CD34^+ cells were edited according to a previously optimised protocol (Schiroli, G. et al (2017) Sci Transl Med 9). Briefly, 1-5×10^5 CD34^+ cells/ml were stimulated in serum-free StemSpan medium (StemCell Technologies) supplemented with penicillin, streptomycin, glutamine, 1 μM of the arylhydrocarbon receptor antagonist SR-1 (Biovision), […] of the pyrimidoindole-derivative UM171 (STEMCell Technologies), 10 μM of the 15-hydroxy PGDH competitive inhibitor dmPGE-2 added only at the beginning of the culture (Cayman), and human early-acting cytokines (SCF 100 ng/ml, Flt3-L 100 ng/ml, TPO 20 ng/ml, and IL-6 20 ng/ml; all purchased from Peprotech). After 3 days of pre-stimulation, cells were washed with PBS and electroporated using P3 Primary Cell 4D-Nucleofector X Kit and program EO-100 (Lonza). Cells were electroporated with 1-1.2 μM of RNPs. Where specified, electroporation mixture was supplemented with Ad5-E4orf1, Ad5-E4orf6/7 and GSE56/Ad5-E4orf6/7 mRNAs, which were respectively utilized at doses of 120, 80 and 200 μg/ml, or Ad5-E1B55K and Ad5-E4orf6 mRNAs were used at 120 and 80 μg/ml. All other adenoviral protein variants were used at standard dose 120 μg/ml. Transduction with AAV-6 was performed 15 min post-electroporation at dose of 1-5×10^4 vg/cell. Where specified, CD34+ cells were stimulated for shorter time in culture (0, 24 or 48 hours) and edited as described above. Gene editing efficiency was measured from cultured cells in vitro at 4 days post-editing by flow cytometry measuring the percentage of cells expressing the GFP reporter gene or by digital droplet PCR analysis designing primers and probe on the junction between the vector sequence and the targeted locus and on control sequence utilised as normaliser as previously described (Schiroli, G. et al (2017) Sci Transl Med 9) and Schiroli et al., Cell Stem Cell 2019. […]

human primary T cells = assay: Gene editing of human primary T cells; type: cell-based; conditions: 20 days after treatment; bulk CD3+, CD4 and CD8 subpopulations; FIG. 9B
Source text: Finally, we tested the delivery of the E4orf6/7 mRNA together with the Cas9 ribonucleoprotein (RNP) into human primary T cells (peripheral blood derived total CD3+ cells) before AAV6 transduction for the delivery of the donor DNA template (FIG. 9A).

Row | Molecule | APOBEC3H expression (APOBEC3H) | reduction of the amplitude of p21 (CDKN1A) activation compared to RNP+AAV6 (CDKN1A; 24 hours post-editing, FIG. 16E) | erythroid and myeloid clonogenic output compared to standard protocol (human CD34+ cells [1]) | erythroid and myeloid clonogenic output (human CD34+ cells [1]; sorted populations, FIG. 3F) | increase of GFP expression compared to standard RNP+AAV6 (human CD34+ cells [2]; AAVS1, most primitive compartment (CD34+133+90+ / CD90+), 96 hours, FIG. 14C) [fold] | HDR-mediated integration (GFP+ cells) in the CD34+ 133+ 90+ fraction, mean (human CD34+ cells [2]; AAVS1 or IL2RG editing, 3 days) [%] | overall efficiency of DNA repair (human CD34+ cells [2]; AAVS1 or IL2RG editing, 3 days, FIG. 3C) | HDR-mediated integration at the targeted locus (human CD34+ cells [2]; AAVS1 or IL2RG editing, ddPCR, 3 days, FIG. 3C left) | CDKN1A expression compared to the standard (CDKN1A; 12 hours post-editing, FIG. 16F) | increase in number of myeloid and erythroid colony forming units (CFU) compared to standard (human CD34+ cells [1]; FIG. 7C) [fold] | increase in the percentage of GFP+ cells compared to standard (human primary T cells) [fold] | mean increase in the percentage of primitive HSPC expressing GFP (CD34+CD133+CD90+GFP+) (human CD34+ cells [2]; AAVS1, CB CD34+, vs standard, all AAV6 doses, FIG. 6B) [fold] | increase in the percentage of targeted CD90+ cells (human CD34+ cells [2]; AAVS1, cells for NSG transplantation, FIG. 10B) [fold] | editing efficiency (GFP expression) at IL2RG locus (human CD34+ cells [2]; IL2RG, FIG. 14I) | HDR edited alleles at AAVS1 locus (human CD34+ cells [2]; digital PCR in bulk culture, FIG. 14D) | HDR-events integrations increase in AAVS1 locus of HSPCs (human CD34+ cells [2]; discussion) [fold] | editing efficiency by molecular analyses on genomic DNA (human CD34+ cells [2]; human HSPC, FIG. 8B) | mean increase in the fraction of GFP+ cells compared to the standard (human CD34+ cells [2]; side-by-side, AAVS1, 4 days, FIG. 7A) [fold] | editing efficiency with editing at day 0 to day 2 post-thawing (human CD34+ cells [2]; total bulk and CD90+ fraction, AAVS1, FIG. 14K) | HDR-mediated integration (genomic DNA) (human CD34+ cells [2]; vs standard, FIG. 10D)
1 | B1 | significantly down-regulated | about 3 fold | improved | increased particularly in CD90+ fraction | 1.1 | 42 | did not negatively impact overall efficiency of DNA repair | promoted HDR-mediated integration at the targeted locus | – | – | – | – | – | – | – | – | – | – | – | –
2 | B2 | significantly down-regulated | – | not affected | – | – | – | – | – | about 2 fold | 2 | 1.5 | 1.5 | 1.4 | significant editing efficiency increase | significantly increased | 1.5 | reproducibly able to boost editing | 1.45 | editing efficiency was increased | increase levels of HDR-mediated integration

Reference: patent US12558435B2, “Transient inhibition of p53 in gene therapy” (Ospedale San Raffaele S.R.L., priority 2018, dated 2026)
